Source: patent US20240398911A1
pKd: −log10 of the molar value.

Columns and labels:
[1] = biological target: SARS-CoV2 RBD-8h (Delta) (SARS-CoV-2 (Delta)) (UniProt P0DTC2); experiment: BLI, IgG protein immobilized, monomeric RBD-8h analyte
[2] = biological target: SARS-CoV2 RBD-8h (Gamma) (SARS-CoV-2 (Gamma)) (UniProt P0DTC2); experiment: as above

VIR-7831 (sotrovimab) (antibody)
pKd [1]: > 10.00
koff [1]: < 1e-07 s⁻¹
kon [1]: 100000 M⁻¹ s⁻¹
kon [2]: 97000 M⁻¹ s⁻¹
